Reference: paper PMC8226452, “PESIN Conjugates for Multimodal Imaging: Can Multimerization Compensate Charge Influences on Cell Binding Properties? A Case Study” (Pharmaceuticals, 2021)
Where two headings read alike, the source gives them in different places.

Key:
[1] = logD by partition between n-octanol and aqueous solution at pH 7.4; type: physicochemical
Experimental: For the ^68Ga-labeled agents [^68Ga]Ga-2, [^68Ga]Ga-3, [^68Ga]Ga-5, and [^68Ga]Ga-6, and the dyes NIR-820 and 1, the logD values were determined by partition experiments between n-octanol and aqueous solution at pH 7.4.
Determination of logD. The n-octanol/water partition coefficient (logD) of [^68Ga]Ga-2, [^68Ga]Ga-3, [^68Ga]Ga-5, and [^68Ga]Ga-6 was determined as previously described. In brief, 5 µL of the respective radiolabeled product solutions were added to a mixture of n-octanol (800 µL) and phosphate buffered solution (0.05 M, pH 7.4, 795 µL) and vigorously shaken for 5 min. After separation of the phases by centrifugation, 100 µL of each phase was taken and measured in a γ-counter.

[2] = target: T1, gastrin-releasing peptide receptor (GRPR) (Homo sapiens, UniProt P30550); assay: Competitive displacement assay with [125I]I-Tyr4-bombesin on stably GRPR-transfected HEK-293 cells; conditions: 10^5 GRPR-transfected HEK-293 cells per well; radioligand [125I]I-Tyr4-bombesin; 11 competitor concentrations (0.25-500 nM for 5 and 6, 0.1-250 nM for BBN); 1 h at ambient temperature; γ-counting; nonlinear regression; at least three experiments, each in triplicate; read-out: IC50 (GRPR binding affinity)
T1 construct: host or cells: HEK-293 (human embryonic kidney) cells, stably GRPR-transfected
T1 sequence (P30550 whole entry, species assumed): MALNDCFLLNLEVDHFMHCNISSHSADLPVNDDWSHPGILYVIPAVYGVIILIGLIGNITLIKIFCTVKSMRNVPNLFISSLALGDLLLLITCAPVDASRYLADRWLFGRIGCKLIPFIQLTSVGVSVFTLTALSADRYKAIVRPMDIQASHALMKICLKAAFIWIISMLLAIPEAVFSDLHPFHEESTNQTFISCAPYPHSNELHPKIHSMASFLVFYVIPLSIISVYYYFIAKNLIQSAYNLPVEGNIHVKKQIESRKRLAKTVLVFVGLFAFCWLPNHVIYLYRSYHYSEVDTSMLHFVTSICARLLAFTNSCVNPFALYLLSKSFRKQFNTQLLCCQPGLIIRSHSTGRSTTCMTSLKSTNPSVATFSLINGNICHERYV
Experimental: Human embryonic kidney 293 cells, stably expressing the GRP receptor (GRPR HEK-293 cells), were obtained from Dr. Martin Béhé, Paul Scherrer Institute, Villingen, Switzerland. Cells were cultured using Dulbecco’s modified Eagle’s medium (DMEM, high glucose, GlutaMax-I, 500 mL), geneticin (G418 Sulfate, 50 mg/mL), Opti-MEM I (GlutaMAX I), RPMI 1640 medium and PenStrep from Gibco, fetal calf serum (FCS) from Bio&sell (Feucht, Germany) and Dulbecco’s phosphate buffered saline (PBS), 0.25% Trypsin and 0.02% EDTA solution in PBS from Sigma-Aldrich (Darmstadt, Germany).
Competitive Receptor Binding Assay. The assays were carried out on stably GRPR-transfected HEK-293 cells as described previously [26, 27]. In brief, 50 µL of a cell suspension containing 10^5 cells was seeded in each well of a Millipore 96-well filter plate. […] After one hour of incubation at ambient temperature, the suspension was filtered and the cells washed thrice with cold PBS. The filter was punched out and measured by γ-counting. […] IC50 values were obtained from at least three different experiments, each performed in triplicate.

[3] = not given; remark: listed apart in the source
[4] = shake-flask, n-octanol (800 µL)/phosphate buffered solution (0.05 M, pH 7.4, 795 µL), 5 µL of 68Ga-labeled product solution, shaken 5 min, centrifugation, 100 µL of each phase measured in γ-counter, read-out: logD (n-octanol/water partition coefficient)

**Q.** Which “logD (n-octanol/water partition coefficient)” value ([1]; pH 7.4) does the source give for CC1(C)C(/C=C/C2=C(c3ccccc3)C(=C/C=C3/N(CCCCS(=O)(=O)O)c4ccc(C(=O)NCCCC[C@H](NC(=O)CC[C@H](C(=O)O)N5CCN(CC(=O)O)CCN(CC(=O)O)CC5)C(=O)N[C@@H](CS)C(N)=O)cc4C3(C)C)/CCC2)=[N+](CCCCS(=O)(=O)[O-])c2ccc(C(=O)O)cc21 [[^68Ga]Ga-2, metal not drawn] here?
**A.** The value was −2.6 ± 0.1.

**Q.** For CSCC[C@H](NC(=O)[C@H](CC(C)C)NC(=O)[C@H](Cc1c[nH]cn1)NC(=O)CNC(=O)[C@@H](NC(=O)[C@H](C)NC(=O)[C@H](Cc1c[nH]c2ccccc12)NC(=O)[C@H](CCC(N)=O)NC(=O)CCOCCOCCOCCOCCNC(=O)CO/N=C/c1ccc(C(=O)NCCCN(CCCNC(=O)c2ccc(/C=N/OCC(=O)NCCOCCOCCOCCOCCC(=O)N[C@@H](CCC(N)=O)C(=O)N[C@@H](Cc3c[nH]c4ccccc34)C(=O)N[C@@H](C)C(=O)N[C@H](C(=O)NCC(=O)N[C@@H](Cc3c[nH]cn3)C(=O)N[C@@H](CC(C)C)C(=O)N[C@@H](CCSC)C(N)=O)C(C)C)cc2)CC(=O)N[C@@H](CSC2CC(=O)N(CCN3C(=O)CC(SC[C@H](NC(=O)[C@H](CCCCNC(=O)c4ccc5c(c4)C(C)(C)C(/C=C/C4=C(c6ccccc6)C(=C/C=C6/N(CCCCS(=O)(=O)O)c7ccc(C(=O)O)cc7C6(C)C)/CCC4)=[N+]5CCCCS(=O)(=O)[O-])NC(=O)CC[C@H](C(=O)O)N4CCN(CC(=O)O)CCN(CC(=O)O)CC4)C(N)=O)C3=O)C2=O)C(=O)NCCOCCOCC(=O)O)cc1)C(C)C)C(N)=O (stereo partly shown) [[^68Ga]Ga-5, metal not drawn], which logD [1, 4] is on record?
**A.** The logD was -2.2 ± 0.1.

**Q.** For CSCC[C@H](NC(=O)[C@H](CC(C)C)NC(=O)[C@H](Cc1c[nH]cn1)NC(=O)CNC(=O)[C@@H](NC(=O)[C@H](C)NC(=O)[C@H](Cc1c[nH]c2ccccc12)NC(=O)[C@H](CCC(N)=O)NC(=O)CCOCCOCCOCCOCCNC(=O)CO/N=C/c1ccc(C(=O)NCCCN(CCCNC(=O)c2ccc(/C=N/OCC(=O)NCCOCCOCCOCCOCCC(=O)N[C@@H](CCC(N)=O)C(=O)N[C@@H](Cc3c[nH]c4ccccc34)C(=O)N[C@@H](C)C(=O)N[C@H](C(=O)NCC(=O)N[C@@H](Cc3c[nH]cn3)C(=O)N[C@@H](CC(C)C)C(=O)N[C@@H](CCSC)C(N)=O)C(C)C)cc2)CC(=O)N[C@@H](CSC2CC(=O)N(CCN3C(=O)CC(SC[C@H](NC(=O)[C@H](CCCCNC(=O)c4ccc5c(c4)C(C)(C)C(/C=C/C4=C(c6ccccc6)C(=C/C=C6/N(CCCCS(=O)(=O)O)c7ccc(C(=O)NCCCC[C@H](NC(=O)CC[C@H](C(=O)O)N8CCN(CC(=O)O)CCN(CC(=O)O)CC8)C(=O)N[C@@H](CSC8CC(=O)N(CCN9C(=O)CC(SC[C@H](NC(=O)CN(CCCNC(=O)c%10ccc(/C=N/OCC(=O)NCCOCCOCCOCCOCCC(=O)N[C@@H](CCC(N)=O)C(=O)N[C@@H](Cc%11c[nH]c%12ccccc%11%12)C(=O)N[C@@H](C)C(=O)N[C@H](C(=O)NCC(=O)N[C@@H](Cc%11c[nH]cn%11)C(=O)N[C@@H](CC(C)C)C(=O)N[C@@H](CCSC)C(N)=O)C(C)C)cc%10)CCCNC(=O)c%10ccc(/C=N/OCC(=O)NCCOCCOCCOCCOCCC(=O)N[C@@H](CCC(N)=O)C(=O)N[C@@H](Cc%11c[nH]c%12ccccc%11%12)C(=O)N[C@@H](C)C(=O)N[C@H](C(=O)NCC(=O)N[C@@H](Cc%11c[nH]cn%11)C(=O)N[C@@H](CC(C)C)C(=O)N[C@@H](CCSC)C(N)=O)C(C)C)cc%10)C(=O)NCCOCCOCC(=O)O)C9=O)C8=O)C(N)=O)cc7C6(C)C)/CCC4)=[N+]5CCCCS(=O)(=O)[O-])NC(=O)CC[C@H](C(=O)O)N4CCN(CC(=O)O)CCN(CC(=O)O)CC4)C(N)=O)C3=O)C2=O)C(=O)NCCOCCOCC(=O)O)cc1)C(C)C)C(N)=O (stereo partly shown) [[^68Ga]Ga-6, metal not drawn], which logD [1, 4] is on record?
**A.** The logD was -1.8 ± 0.1.

**Q.** What about the Stokes Shift of the same compound?
**A.** Its Stokes Shift is 20 nm.

**Q.** For CC1(C)C(/C=C/C2=C(c3ccccc3)C(=C/C=C3/N(CCCCS(=O)(=O)O)c4ccc(C(=O)NCCCC[C@H](NC(=O)CC[C@H](C(=O)O)N5CCN(CC(=O)O)CCN(CC(=O)O)CC5)C(=O)N[C@@H](CS)C(N)=O)cc4C3(C)C)/CCC2)=[N+](CCCCS(=O)(=O)[O-])c2ccc(C(=O)NCCCC[C@H](NC(=O)CC[C@H](C(=O)O)N3CCN(CC(=O)O)CCN(CC(=O)O)CC3)C(=O)N[C@@H](CS)C(N)=O)cc21 [[^68Ga]Ga-3, metal not drawn], which logD ([1]; pH 7.4) is on record?
**A.** The logD was -2.9 ± 0.1.

**Q.** With CSCC[C@H](NC(=O)[C@H](CC(C)C)NC(=O)[C@H](Cc1c[nH]cn1)NC(=O)CNC(=O)[C@@H](NC(=O)[C@H](C)NC(=O)[C@H](Cc1c[nH]c2ccccc12)NC(=O)[C@H](CCC(N)=O)NC(=O)CCOCCOCCOCCOCCNC(=O)CO/N=C/c1ccc(C(=O)NCCCN(CCCNC(=O)c2ccc(/C=N/OCC(=O)NCCOCCOCCOCCOCCC(=O)N[C@@H](CCC(N)=O)C(=O)N[C@@H](Cc3c[nH]c4ccccc34)C(=O)N[C@@H](C)C(=O)N[C@H](C(=O)NCC(=O)N[C@@H](Cc3c[nH]cn3)C(=O)N[C@@H](CC(C)C)C(=O)N[C@@H](CCSC)C(N)=O)C(C)C)cc2)CC(=O)N[C@@H](CSC2CC(=O)N(CCN3C(=O)CC(SC[C@H](NC(=O)[C@H](CCCCNC(=O)c4ccc5c(c4)C(C)(C)C(/C=C/C4=C(c6ccccc6)C(=C/C=C6/N(CCCCS(=O)(=O)O)c7ccc(C(=O)O)cc7C6(C)C)/CCC4)=[N+]5CCCCS(=O)(=O)[O-])NC(=O)CC[C@H](C(=O)O)N4CCN(CC(=O)O)CCN(CC(=O)O)CC4)C(N)=O)C3=O)C2=O)C(=O)NCCOCCOCC(=O)O)cc1)C(C)C)C(N)=O (stereo partly shown) [Compound 5] as the compound, how does the “logD (n-octanol/water partition coefficient)” value ([1]; shake-flask, n-octanol (800 µL)/phosphate buffered solution (0.05 M, pH 7.4, 795 µL), 5 µL of 68Ga-labeled product solution, shaken 5 min, centrifugation, 100 µL of each phase measured in γ-counter) read?
**A.** The value was −2.2 ± 0.1.

**Q.** What about the IC50 [2] of the same compound?
**A.** Its IC50 is 59.1 ± 1.49 nM.

**Q.** Which results are given for CSCC[C@H](NC(=O)[C@H](CC(C)C)NC(=O)[C@H](Cc1c[nH]cn1)NC(=O)CNC(=O)[C@@H](NC(=O)[C@H](C)NC(=O)[C@H](Cc1c[nH]c2ccccc12)NC(=O)[C@H](CCC(N)=O)NC(=O)CCOCCOCCOCCOCCNC(=O)CO/N=C/c1ccc(C(=O)NCCCN(CCCNC(=O)c2ccc(/C=N/OCC(=O)NCCOCCOCCOCCOCCC(=O)N[C@@H](CCC(N)=O)C(=O)N[C@@H](Cc3c[nH]c4ccccc34)C(=O)N[C@@H](C)C(=O)N[C@H](C(=O)NCC(=O)N[C@@H](Cc3c[nH]cn3)C(=O)N[C@@H](CC(C)C)C(=O)N[C@@H](CCSC)C(N)=O)C(C)C)cc2)CC(=O)N[C@@H](CSC2CC(=O)N(CCN3C(=O)CC(SC[C@H](NC(=O)[C@H](CCCCNC(=O)c4ccc5c(c4)C(C)(C)C(/C=C/C4=C(c6ccccc6)C(=C/C=C6/N(CCCCS(=O)(=O)O)c7ccc(C(=O)O)cc7C6(C)C)/CCC4)=[N+]5CCCCS(=O)(=O)[O-])NC(=O)CC[C@H](C(=O)O)N4CCN(CC(=O)O)CCN(CC(=O)O)CC4)C(N)=O)C3=O)C2=O)C(=O)NCCOCCOCC(=O)O)cc1)C(C)C)C(N)=O (stereo partly shown)?
**A.** λmax(em) [3]: 790 nm; Stokes Shift: 20 nm

**Q.** For CC1(C)C(/C=C/C2=C(Cl)C(=C/C=C3\N(CCCCS(=O)(=O)[O-])c4ccc(C(=O)O)cc4C3(C)C)/CCC2)=[N+](CCCCS(=O)(=O)[O-])c2ccc(C(=O)O)cc21.[H+] [NIR-820, reference compound], which “logD (n-octanol/water partition coefficient)” value ([1]; unlabeled dyes, comparable n-octanol/water partition experiments at pH 7.4, HPLC analysis of the phases instead of γ-counting) is on record?
**A.** Its value is −3.3 ± 0.7.
